# Laboratory results reported in article PMC5397884 (Biochemistry, 2017).
# Where “and” joins values, the source holds several entries; their conditions need not be identical. Equal values may be shown once. Where no end group is shown, it is not given here.
# B1: Peptide tail (WTAEHVDQTLASGNDIC) (peptide)
# peptide: WTAEHVDQTLASGNDIC
# B2: peptide tail (17-amino acid C-terminal recognition sequence) (peptide)
# peptide: WTAEHVDQTLASGNDIC
# Experiments:
# [1] = target: GmPOPB-S577A (inactive mutant) (Galerina marginata) (UniProt H2E7Q8); assay: ITC; 200 uM peptide in the syringe titrated into 20 uM protein in the cell; 20 °C; 50 mM Tris (pH 8.0), 50 mM NaCl, 10 mM DTT; single-site model, n fixed at 1.0
# His680 = His680 (UniProt position 680, DTKAGHGAGKP); assay: other (titration of the catalytic histidine; the title of ref 41 indicates inhibitor binding); details: cited from earlier work
# porcine POP = details: cited from earlier work
# [2] = target: GmPOPB–tail complex (GmPOPB-S577A pre-mixed with the peptide tail) (Galerina marginata) (UniProt H2E7Q8); assay: stopped-flow tryptophan fluorescence; global fitting by numerical integration (KinTek Global Kinetic Explorer) of stopped-flow binding and quenched-flow turnover data together; 20 °C; k1/k-1 and k5/k-5 linked by the ITC Kd values; k4 and k-4 fixed at best-fit values
# [3] = target: GmPOPB–tail complex (GmPOPB-S577A pre-mixed with the peptide tail) (Galerina marginata) (UniProt H2E7Q8); assay: stopped-flow tryptophan fluorescence; analytical fitting; excitation 285 nm, emission above 320 nm; 20 °C; 50 mM Tris-HCl (pH 8.0), 50 mM NaCl, 10 mM DTT; constants calculated from rate constants; Kov is an apparent dissociation constant for a two-step binding process
# GmPOPB [4] = target: T1, GmPOPB (Galerina marginata, UniProt H2E7Q8); assay: Global fitting by numerical integration of quenched-flow and stopped-flow data; format: biochemical; details: read-out: k–5 (tail association), Kintek best-fit
# T1 construct: His tag (TEV-cleavable) (cleaved yes); made in house; host or cells: E. coli BL21(DE3)
# GmPOPB [5] = target: T1, GmPOPB; assay: biochemical; details: Figure S10, fit to Equation S4; activity normalized to no inhibitor (100%) and 50 µM recognition sequence (0%)
# [6] = tested on: CC[C@H](C)[C@H](N)C(=O)N[C@@H](Cc1c[nH]c2ccccc12)C(=O)NCC(=O)N[C@H](C(=O)NCC(=O)N[C@@H](CS)C(=O)N[C@@H](CC(N)=O)C(=O)N1CCC[C@H]1C(=O)N[C@@H](Cc1c[nH]c2ccccc12)C(=O)N[C@H](C(=O)N[C@@H](C)C(=O)N[C@@H](CCC(=O)O)C(=O)N[C@@H](Cc1c[nH]cn1)C(=O)N[C@H](C(=O)N[C@@H](CC(=O)O)C(=O)N[C@@H](CCC(N)=O)C(=O)N[C@H](C(=O)N[C@@H](CC(C)C)C(=O)N[C@@H](C)C(=O)N[C@@H](CO)C(=O)NCC(=O)N[C@@H](CC(N)=O)C(=O)N[C@@H](CC(=O)O)C(=O)N[C@H](C(=O)N[C@@H](CS)C(=O)O)[C@@H](C)CC)[C@@H](C)O)C(C)C)[C@@H](C)O)[C@@H](C)CC; assay: purified protein, by the assay type; details: 50 mM NaCl, 10 mM DTT, duplicate
# [7] = target: T2, Prolyl oligopeptidase B from Galerina marginata (GmPOPB) (Galerina marginata, UniProt H2E7Q8 1-730); assay: stopped-flow tryptophan fluorescence; 2 μM GmPOPB, peptide tail 0.5-20 μM, 20 °C; this experiment fitted individually by numerical integration (KinTek Global Explorer, Fitspace boundaries), no constraints; details: both partners purified
# T2 sequence (looked up): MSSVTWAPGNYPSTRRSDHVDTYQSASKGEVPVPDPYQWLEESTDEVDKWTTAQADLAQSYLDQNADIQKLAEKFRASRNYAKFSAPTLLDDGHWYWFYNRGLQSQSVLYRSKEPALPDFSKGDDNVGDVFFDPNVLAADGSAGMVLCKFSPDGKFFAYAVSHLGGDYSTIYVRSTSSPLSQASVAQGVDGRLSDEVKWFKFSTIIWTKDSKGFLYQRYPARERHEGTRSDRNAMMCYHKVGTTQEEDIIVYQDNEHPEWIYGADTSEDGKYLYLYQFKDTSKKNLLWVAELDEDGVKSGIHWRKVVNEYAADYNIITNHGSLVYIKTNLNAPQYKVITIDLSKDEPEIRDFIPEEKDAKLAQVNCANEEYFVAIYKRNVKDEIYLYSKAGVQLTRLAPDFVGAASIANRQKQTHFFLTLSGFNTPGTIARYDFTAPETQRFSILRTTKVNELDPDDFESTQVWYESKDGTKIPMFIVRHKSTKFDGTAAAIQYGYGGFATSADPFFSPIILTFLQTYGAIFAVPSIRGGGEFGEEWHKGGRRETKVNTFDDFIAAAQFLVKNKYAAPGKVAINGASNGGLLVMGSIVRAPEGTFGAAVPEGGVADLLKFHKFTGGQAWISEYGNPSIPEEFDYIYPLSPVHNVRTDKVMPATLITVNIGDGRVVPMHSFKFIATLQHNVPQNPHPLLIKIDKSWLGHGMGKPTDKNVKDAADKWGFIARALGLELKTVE
# [8] = target: T2, Prolyl oligopeptidase B from Galerina …; assay: stopped-flow tryptophan fluorescence; 2 μM GmPOPB, peptide tail 0.5-20 μM, 20 °C, excitation 285 nm, emission above 320 nm; analytical fitting (replots of kobs and of amplitudes against tail concentration); details: both partners purified
# [9] = target: T2, Prolyl oligopeptidase B from Galerina …; assay: as above; details: both partners purified; remark: listed apart in the source
# [10] = target: T3, Prolyl oligopeptidase B from Galerina marginata (GmPOPB) (Galerina marginata, UniProt H2E7Q8 1-730); assay: ITC; 200 uM peptide in the syringe titrated into 20 uM protein in the cell; 20 °C; 50 mM Tris (pH 8.0), 50 mM NaCl, 10 mM DTT; single-site model, n fixed at 1.0; details: both partners purified
# T3 sequence (looked up): T2 sequence (looked up)
# [11] = target: T3, Prolyl oligopeptidase B from Galerina …; assay: as above; details: both partners purified; remark: listed apart in the source
# [12] = target: T3, Prolyl oligopeptidase B from Galerina …; assay: stopped-flow tryptophan fluorescence; global fitting by numerical integration (KinTek Global Kinetic Explorer) of stopped-flow binding and quenched-flow turnover data together; 20 °C; k1/k-1 and k5/k-5 linked by the ITC Kd values; k4 and k-4 fixed at best-fit values; details: both partners purified
# [13] = target: T3, Prolyl oligopeptidase B from Galerina …; assay: stopped-flow tryptophan fluorescence; analytical fitting; excitation 285 nm, emission above 320 nm; 20 °C; 50 mM Tris-HCl (pH 8.0), 50 mM NaCl, 10 mM DTT; constants calculated from rate constants; Kov is an apparent dissociation constant for a two-step binding process; details: both partners purified
# [14] = other: 20 °C, 50 mM Tris-HCl (pH 8.0), standard error, 20.0 °C
molecule,measurement,setting,value
25mer peptide substrate of GmPOPB (core plus peptide tail of the amanitin precursor),stoichiometry N,[1],1
"Prolyl oligopeptidase (prolyl endopeptidase, POP) (Sus scrofa)",pKa,His680,6.25
porcine POP: Sus scrofa (porcine) prolyl oligopeptidase,"activation energy, porcine POP",porcine POP; depending on the substrate used,14 to 20 kcal mol^–1
same,"pKa (first), porcine POP",porcine POP; dipeptide substrate,5
same,"pKa (second), porcine POP",porcine POP; dipeptide substrate,7
same,"pKa (third), porcine POP",porcine POP; dipeptide substrate,9.5
same,"pKa of catalytic His680, porcine POP",porcine POP; titration of the catalytic histidine,6.25
eight-amino acid cyclic peptide product of the GmPOPB macrocyclization reaction,"k3 (slower step of the two-step binding, direction of release of the cyclic peptide)",[2],12.3 s^–1
same,"k4 (fast bimolecular step of the two-step binding, dissociation of the cyclic peptide)",[2],100 s^–1
same,"k-3 (slower step of the two-step binding, direction of binding of the cyclic peptide)",[2],0.78 μM^–1 s^–1
same,"k-4 (fast bimolecular step of the two-step binding, association of the cyclic peptide)",[2],60 μM^–1 s^–1
same,Kd,[3],99.2 nM
WTAEHVDQTLASGNDIC [peptide tail],kon,GmPOPB [4],3.22e+06 ± 10000 M⁻¹ s⁻¹
same,IC50,GmPOPB [5],320 ± 100 nM
GmPOPB (Galerina marginata CBS 339.88),Km,[6]; [14],55 µM and 55.4 ± 18.6 µM
same,kcat,[6]; [14],0.23 ± 0.03 s^–1
same,Km,"[6]; other: H2O, 37 °C, 50 mM Tris (pH 8.0), LC–MS, 37.0 °C",51 µM
B1,koff,[7],0.58 s⁻¹
same,kon,[7],4.69e+06 M⁻¹ s⁻¹
same,Kd,[8],322 ± 37.5 nM
same,koff,[9],3.54 s⁻¹
same,kon,[9],4.84e+06 M⁻¹ s⁻¹
B2,stoichiometry N,[10],~1
same,Kd,[11],442 nM
same,koff,[12],1.44 s⁻¹
same,Kd,[13],731 nM
